Where a chain is given by its changes, count along the chain named. In names and notes the source's numbering stands. Blank lines part the entries; values can stand above or below the molecule they belong to.
How the values were obtained:
PC12 cells = assay: GH secretion from transfected PC12 cells; type: cell-based; details: for 8-Br-cAMP-induced, Ca2+-dependent GH secretion: 8-Br-cAMP 1 mM, GH released relative to total cellular GH, n=9; for forskolin-induced GH secretion relative to wild-type cAMP-GEFII: high K+, 15-min incubation, increment above basal, wild-type = 100%
Procedure: GH secretion from transfected PC12 cells was performed as described in K. Korake et al., J. Biol. Chem., 272:29407(1997). Expression plasmid vectors (pSR α) for wild-type cAMP-GEFII, mutant cAMP-GEFII (T810A), and the double mutant cAMP-GEFII (G114E, G422D) were prepared. As a control, β-galactosidase (β-gal) was used. […] were transfected with GH expression vector (pXGH5: Nichols Institute) plus each vector described above, using LipofectAMINE.
PC12 cell were incubated with a low […] (4.7 mM) or high K^+ (60 mM) solution, in the presence or absence of forskolin (50 μM) or 8-bromoadenosine 3′,5′ cyclic monophosphate (8-Br-cAMP)(1 mM). Forskolin or 8-Br-cAMP was added 10 min before the incubation with a low or high K^+ solution. In some experiments, the PKA inhibitor H-89 (10 μM) was added 10 min before forskolin stimulation.

[1] = target: T1, constitutively active Rab3A (Q81L) (Bos taurus, UniProt P11023, Q81L); assay: Yeast two-hybrid assay with Rab3A; type: binding, bovine; details: transactivation of liquid β-galactosidase activity
T1 construct: the full-length cDNA's for wild type mouse Rab3A and constitutively active bovine Rab3A (Q81L) were cloned into the yeast bait vector pBTM116; expressed in transfected cells
T1 sequence (P11023 1-220 Q81L): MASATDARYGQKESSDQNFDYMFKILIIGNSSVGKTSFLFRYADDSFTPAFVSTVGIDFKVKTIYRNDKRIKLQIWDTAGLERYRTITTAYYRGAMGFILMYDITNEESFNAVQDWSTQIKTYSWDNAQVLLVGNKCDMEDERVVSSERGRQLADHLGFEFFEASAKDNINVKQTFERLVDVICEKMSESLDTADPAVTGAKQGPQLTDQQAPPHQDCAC
Text: According to the method described in “Identification of Interacting molecules by YTH Method”, the full-length cDNA's for wild type mouse Rab3A and constitutively active bovine Rab3A (Q81L) were cloned into the yeast bait vector pBTM116.
The nucleotide sequence of zinc finger domains of bovine rabphilin3 (amino acid residues 1-283), rat Rim1 (amino acid residues 1-204) and mouse Rim2 (amino acid residues 1-345 were cloned into the prey vector pVP16. Liquid culture assay of […] activities was performed according to the manufacturer's instructions (Clontech). The activity values were obtained from 3 independent clones for each transformant and normalized by cell numbers determined as OD600.

cAMP-GEFII = target: T2, cAMP-GEFII (Mus musculus, UniProt Q9EQZ6); assay: GST pull-down, interaction of Rim with cAMP-GEFII; type: binding; details: lysates of COS-1 or MIN6 cells, or mouse brain homogenate; immunoblotting
T2 construct: A full-length cAMP-GEFII cDNA was subcloned into plasmid pFLAG-CMV-2 (Sigma); expressed in transfected cells; host or cells: COS-1 cells
T2 sequence (Q9EQZ6 1-1011): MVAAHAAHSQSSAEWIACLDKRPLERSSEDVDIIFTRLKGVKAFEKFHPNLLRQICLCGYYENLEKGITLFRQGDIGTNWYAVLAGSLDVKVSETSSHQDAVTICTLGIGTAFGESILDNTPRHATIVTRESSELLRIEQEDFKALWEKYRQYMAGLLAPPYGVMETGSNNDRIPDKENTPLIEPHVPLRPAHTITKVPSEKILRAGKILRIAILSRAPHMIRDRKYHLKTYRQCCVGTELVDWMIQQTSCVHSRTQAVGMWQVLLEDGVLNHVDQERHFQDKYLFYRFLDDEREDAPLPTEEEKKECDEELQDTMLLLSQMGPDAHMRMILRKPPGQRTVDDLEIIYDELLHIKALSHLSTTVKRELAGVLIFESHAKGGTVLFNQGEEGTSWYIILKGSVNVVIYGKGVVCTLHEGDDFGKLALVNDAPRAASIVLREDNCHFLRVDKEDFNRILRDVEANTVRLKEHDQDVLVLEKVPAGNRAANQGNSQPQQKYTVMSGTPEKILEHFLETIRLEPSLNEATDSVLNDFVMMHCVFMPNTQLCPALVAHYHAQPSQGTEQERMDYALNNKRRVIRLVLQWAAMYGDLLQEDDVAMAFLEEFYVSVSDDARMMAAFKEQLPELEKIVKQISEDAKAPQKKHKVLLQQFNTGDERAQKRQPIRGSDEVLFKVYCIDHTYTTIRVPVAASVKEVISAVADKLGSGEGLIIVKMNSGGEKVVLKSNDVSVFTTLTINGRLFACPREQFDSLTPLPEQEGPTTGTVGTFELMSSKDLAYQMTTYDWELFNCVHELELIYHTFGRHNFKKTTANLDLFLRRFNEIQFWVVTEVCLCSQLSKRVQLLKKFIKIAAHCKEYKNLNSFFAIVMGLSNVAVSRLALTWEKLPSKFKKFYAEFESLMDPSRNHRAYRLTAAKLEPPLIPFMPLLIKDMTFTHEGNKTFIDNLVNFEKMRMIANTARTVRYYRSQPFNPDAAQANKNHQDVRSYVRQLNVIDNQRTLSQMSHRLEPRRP
Procedure: Rim2 (amino acid residues 538-863) was expressed as a GST fusion protein and purified according to the method described in “Preparation and Test of GST fusion Protein”. A full-length cAMP-GEFII cDNA was subcloned into plasmid pFLAG-CMV-2 (Sigma). The resultant construct was transfected into COS-1 cells, using LipofectAMINE (Life Technologies). The lysate of the COS-1 cells was incubated with GST-Rim2 immobilized on glutathione beads for 2 hrs at 4° C. The complex thus obtained was washed with distilled water, separated by SDS-PAGE, and immunoblotted with an anti-FLAG M2 antibody (Sigma).
The lysate of MIN6 cells was incubated with GST-Rim2 and interaction between cAMP-GEFII and Rim2 was evaluated according to the method described in “Study on Interaction between Rim2 and cAMP-GEFII: I”, using a IgG antibody raised against the C-terminus (amino acid residues 1001-1011, […] (SEQ ID NO:5) of mouse cAMP-GEFII.
According to the method described in “Preparation and Test of GST fusion Protein”, Rim1 partial sequence (530-806) was expressed as a GST fusion protein and then purified. The brain homogenate from three mice was incubated with GST-Rim1 immobilized on glutathione beads overnight at 4° C. cAMP-GEFII was detected as described in “Study on Interaction between Rim2 and cAMP-GEFII: II”.

Rab3A = assay: In vitro binding of Rab3A to immobilized GST-Rim; details: immobilized on glutathione beads; anti-Rab3A immunoblotting
Procedure: Lipid-modified Rab3A was purified from the membrane fraction of Sf9 cells expressing Rab3A. Rat Rim1 (amino acid residues 1-204) and mouse Rim2 (amino acid residues 1-345) were expressed as GST fusion proteins and purified. The GTP γS- or GDP βS-bound form of Rab3A was incubated for 90 min at 4° C. with GST-Rim1, or GST-Rim2 (30 pmol for each) immobilized on glutathione beads in reaction buffer. Rab3A was detected by immunoblotting with anti-Rab3A antibody.

Molecule: Nc1ncnc2c1nc(Br)n2[C@@H]1O[C@@H]2COP(=O)(O)O[C@H]2[C@H]1O [8-Br-cAMP, 8-bromoadenosine 3′,5′ cyclic monophosphate, reference compound]
- 8-Br-cAMP-induced, Ca2+-dependent GH secretion (PC12 cells; cAMP-GEFII-transfectant): 34.9±1.3%
- 8-Br-cAMP-induced, Ca2+-dependent GH secretion (PC12 cells; control (β-galactosidase-transfectant)): 25.1±1.8%

Molecule: O=S(=O)(NCCNC/C=C/c1ccc(Br)cc1)c1cccc2cnccc12 [H-89, reference compound]
- effect on high K+-induced GH secretion (PC12 cells; H-89 10 μM, cAMP-GEFII-transfected and β-galactosidase-transfected PC12 cells): reduced

B1: cAMP-GEFII: cAMP sensor protein, GDP/GTP exchange factor II; wild type transfected into PC12 cells (protein)
chain: T2 sequence (Q9EQZ6 1-1011)
modifications: left off: large carriers
notes: cAMP sensor protein, GDP/GTP exchange factor II; wild type transfected into PC12 cells
- forskolin-induced, Ca2+-dependent GH secretion with PKA inhibitor H-89, versus control cells (PC12 cells; H-89 10 μM, forskolin 50 μM): significantly higher
- effect on Ca2+-dependent (60 mM K+) secretion of cotransfected GH (PC12 cells; compared to the control transfectant): did not alter
- effect on forskolin-induced, Ca2+-dependent GH secretion (PC12 cells; forskolin 50 μM): significantly enhanced

B2: cAMP-GEFII (G114E, G422D): double mutant cAMP-GEFII in which both cAMP binding sites are disrupted (protein, UniProt Q9EQZ6 1-1011, looked up, variant G114E G422D)
Rap guanine nucleotide …: T2 sequence (Q9EQZ6 1-1011) with G114E, G422D
- forskolin-induced GH secretion relative to wild-type cAMP-GEFII (PC12 cells; forskolin 50 μM): ~40%

B3: cAMP-GEFII (T810A): mutant cAMP-GEFII in which a potential PKA phosphorylation site is disrupted (protein, UniProt Q9EQZ6 1-1011, looked up, variant T810A)
Rap guanine nucleotide …: T2 sequence (Q9EQZ6 1-1011) with T810A
- forskolin-induced GH secretion relative to wild-type cAMP-GEFII (PC12 cells; forskolin 50 μM): not affected

- interaction with active Rab3A (Q81L) [1]: interacts
- interaction with cAMP-GEFII protein (cAMP-GEFII): bound
- binding to GTPγS- or GDP-bound form of Rab3A (Rab3A): binds to the GTP-activated form
B4: Rim1: Rab3-interacting molecule, putative effector of the small G protein Rab3; rat, used as GST fusion (protein)
chain: MSSAVGPRGPRPPTVPPPMQELPDLSHLTEEERNIIMAVMDRQKEEEEKEEAMLKCVVRDMAKPAACKTPRNAESQPHQPPLNIFRCVCVPRKPSSEEGGPERDWRLHQQFESYKEQVRKIGEEARRYQGEHKDDAPTCGICHKTKFADGCGHLCSYCRTKFCARCGGRVSLRSNNEDKVVMWVCNLCRKQQEILTKSGAWFFG
modifications: left off: large carriers
notes: rat, used as GST fusion
